Test results as given in article PMC9392717.

System: His/Xpress-Gemin5 (pcDNA3Xpress-Gemin5)
Assay: pull-down (UV-irradiated HEK293 cells, Ni-NTA, RT-qPCR)
Details: EMSA: RNA folded in 100 mM HEPES pH 8.0, 100 mM NaCl, 5.25 mM MgCl2, 37 C; binding in 40 mM Tris-HCl pH 7.5, 250 mM NaCl, 0.1% (w/v) bME, 15 min, room …

L32-WT-luc mRNA (5'TOP) gave a binding signal (fold vs L32-CM6) of 5.
